# Source: the nanobody polyreactivity screen of Harvey et al. (2022)
# Assay: yeast display, Sf9 membrane polyspecificity reagent, FACS + sequencing; frameworks hold sequencing errors
# How it was run: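 Galactose induction of a Saccharomyces cerevisiae BJ5465 synthetic nanobody display library ran 36–48 hours. The cells were then stained for 1 hour at 4 °C with 10% biotinylated, detergent-solubilized Sf9 membrane reagent, pulled down on streptavidin microbeads and FACS-sorted into low and high (top ~1%) gates on expression and reagent-binding fluorescence. Labels for polyreactivity follow the gate of origin.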
row,Sequence,polyreactivity (PSR sort gate)
1,QVQLVESGGGLVEAGGSLSLTCAASGRPFQYYAMRWYRPAPGKEREFVAAITRTGARTYYAVSVKGRFTISRDNAKNTVYLQMNSLKPEATAVYYCAKSLTFYSWRDYGYWGQGTQVTVSS,high polyreactivity
2,QVQLVESGGGLVQEGGSLRLSCAASGLIFGENAMGWYRQAPGKERELVAAISRRAGITYYADSVKGRFTISRDNAKNTVYLQMNSLKPVDTAVYYCAARKGAISSPYDYWGQGTQVTVSS,high polyreactivity
3,QVQLVESGGGLVQAGGSRRLSCAAAGIIFYAYAMGWYRQAPGKEREFVARISRGGSTNYADSVKGRFTLSRDNAKNTVYLQMNSLKPEDTAVYYCAAYYAYLRYGGLYEYWGQGTQVTVSS,high polyreactivity
4,QVQLVESGGGLVQAGGSLRLSCAAYGITFSKNAKGWYRQAPGKERELVAAISRGGSSYYADSVKGRFTISRDNAKNTVYLQMNSLKPEDTAVYYCSAGWLRKYYYWGQGTQVTVSS,low polyreactivity
5,QVQLVESGGGLVQAVRSRRLSSAASGSIFYFYPMGWYRQAPGKDREFVAAISSGGSTYYSDSVKGRFTNSRDNAKYTVYLQMNSLKPEDTAVYYCAAVSLYYRYDFWGQGTQVTVSS,low polyreactivity
6,QVQLVESGGGLVQAGGSLRLSCAASGRTMDFNVMGWYRQAPGKERELVAAITWSGGSTYYSDSVKGRFTISRDNAKNTVYLQMNSLKPVDTAVYYCAKDLWYWARRYDYWGQGTQVTVSS,high polyreactivity
7,QVQLVESGGGLVQAGGSLRLSCAASGSTFARNVMGWYRQAPGKERELVAAISWRGGRTYYADSVKGRFTISRDNAKNTVYLQMNSLKPEDTAVYYCNAVKRLKVTHSYEYGYWGQGTQVTVSS,high polyreactivity
8,QVQLVESGGGLVQAGGSLRLSCAASGYILYINTMGWYRQAPGKERELVAAITYSGASTYYADSVKGRFTISRDNAKNTVYLQMNSLKPEDNGVYYCAADGYYGGYNYWGQGTQVTVSS,low polyreactivity
9,QVQLVESWGGLVQAGGSLRLSCAASGSIFYSNAMGWYSQAPGKERELVAAIRTSAGSTYYADSVKGRFTISRDTAKNTVYLQMNSLKPEDTAVYYCAAVTTYYYYDVSDYAYEFYYWGQGTQVTVSS,low polyreactivity
10,QVQLVESGGGLVQAGGSLRLSCAASGSIFSVYVMGWYRPAPGKERELVATISSGGGTYYADSVKGRFTISRDNAKNTVYLQMNSLKPEDTAVYYCYADWDDWKGDYWGQGTQVTVSS,low polyreactivity
11,QVQLVESGGGLVHAGGSLRLSCAASGFIFKRYTMGWYRQAPGKERELVATINWNGGNTYYADSVKGRFTISRDNAKNTVYLQMNSVKQDDTAVYYCAATRYVTYGSWGQGTQVTVSS,high polyreactivity
12,QVQLEESGGGLVKAGGSLRLTCAASGIIFVEYAMGWYRQAPGKERELVARIRYSGGSTYYADSVKGRFTISRDNAKNTVYLQMNSLQPEDTAVYYCNALLPYIYDYWGKGTQVTVSS,low polyreactivity
13,QVQLVESGGGLVQAGGSLRLSCAASGSIFEHYAMGWYRQAPGKERELVATISSASRTNYADSVKGRFTISRDNAKNTVYLQMNSLKPEDTAVYYCAARFYYVWYGPYYYWGQGTQVTVSS,high polyreactivity
14,QVQLVESGGGLVQAGGSLRISCAASGSIFYYYDMGWYRQAPGKERELVASISRGGRTYYADSVKGRFTISRDNAMNTVYLQMNSLKPEDTAVYYCAAGYYIRYYGIMDYWGQGTQVTVSS,high polyreactivity
15,QVQLVESGGGLVQAGGSLRLSCAASGSTFPRYAMGWYRQAPGKERELVASITSDGGSTYYADSVKGRFTISRDNAKNTVYLQMNSLKPEDTAFYYCNKVPYRGYRRYGYWGQGTQVTVSS,high polyreactivity
16,QVQLEESGGGLVQAGGSLRLSCAASGSTFSYNTMGWYRQAPGKERELVASITWSGGSTNYADSVKGRFTISRDNAKNTVYLQMNSLKPEDTAVYYCAKDYISVWNVRASDYYWYDYWGQGTQVTVSS,low polyreactivity
17,QVQLVESGGGLVQAGGSLRLSCAASGFIFRYYAMGWSRQAPGKERELGAAITISGGSTYYADSVKGRFTISRDNAKNTVKLQMNSLKPEDTAFYYCAADSKFWYLFHGKRYDYWGQGTQGTVSS,high polyreactivity
18,QVQLVESGGGLVQAGGSLRLSCAASGFIFFTYAMGWYRQSPGKERELVAAISSRGGSTYYADSVKGRFTISRDNAKNTVYLQMNSLKPEDTAVYYCAAQAYGRYPYGYWGQGTQVTVSS,high polyreactivity
19,QVQLVESGGGLVQAGGSLRLSCAASGRIFLVNAKGWYRQAPGKERELVAAITYSGRSTYYAYSVKGRFTISRDNAKNTVYLQMNSLKPEDTSLYYCAALHHTQHDYWGQGTQVTVSS,low polyreactivity
20,QVQLVESGGGLVQAGGSLRLSCAASGGTFRSYTMGWYRQAPGKERELVAAISWGGSTYYADSVKGRFTISRDNAKNTVYLQMNSLKPEDTAVYYCAADYWSFYRKRDYWGQGTQVTVSS,low polyreactivity
21,QVQLVESGGGLVQAGGSLRLSCAASGRIFYQYAMGWYRQAPGKERELVASITTSGGNTYYADSVKGRFTISRDNAKITFYLQMNSLKPEDTAVYYCAARFNWRQWLYEYWGQGTQVTGSS,low polyreactivity
22,QVQLVESGGGLVQAGGSLRLSCAASGRTFDNNAMGWYRQAPGKERELVAAINWSGVRTYYADSVKGRFTISRDNAKNTVYLQMNSLKPEDTAVYYCNTVSASYYYRYNSWGQGTQVTVSS,high polyreactivity

row,Sequence,polyreactivity (PSR sort gate)
1,QVQLVESGGGLVQAGGSLRLSCAASGFIINKYTMGWYRQAPGKERELVAAITWSGGTTYYADSVKGRFTISRDNAKNTVYLQMNSLKPEDTALYYCAAYYYRGRVCAYDYWGQGTQVTVSS,high polyreactivity
2,QDQLVESGGGLVQAGGSLLLSCAASGGIFRFKAMGWYRQARGKERELVAAIIRGGSTYYADSVKGRFTISRDNAKNTVYLQMISLKPEDTAVYDCAADYEYRTKTRDGYYCGQGTQVTVSS,low polyreactivity
3,QVQLVESGGGLVQAGGSLRLSCAASGFILRYYAMGWYRQAPGKERELVAAISSGGGTYYADSVKGRFTISRDNAKNTVYLQMNSLKPEDTAVYYCAADYWGLWHWLYTDDDGDYWGQGTQVTVSS,high polyreactivity
4,QVQLVESGGGLVQAGGSLRLSCAASGIILVAYAMGWYRPAPGKERELVAAITTSGTSTYYADSVKGRFTISRDNAKNTVYVQMNSLTPEDTAVYYCAVRQRYGPARYDYWGQGTQVTVSS,high polyreactivity
5,QVQLVESGGGLVQAGGSLRLSCAASGFIFDYYAMGWYRQAPGKERELVAAISGRGGSTYYADSVKGRFTISRDNAKNTVYLQMNSLKPEDTAVYYCAKGVERYTYGSYWYDYWGQGTQVTVSS,high polyreactivity
6,QVQLVESGGGLVQAGGSLRLSCAASGRTLGVNAMGWYRQAPGKERELVAAISTRGTTTNYADSVKGRFTISRDNAKNTVYLQMNSLKPEDTAVYYCAVRSRTPRAYYYWGQGTQVTVSS,low polyreactivity
7,QVQLVESGGGLVQAGGSLRLSCAASGSTFKFNAMGWYRQAPGKERELVAAISRGGRTNYADSVKGRFTISRDNAKNTVYLQMNSLKPEDTAFYYCAADYSTLYKDDYWGQGTQVTVSS,low polyreactivity
8,QVQIVESGGGVVQAGGSLRLICAASGSTFLVYAMGWYRQAPGKERELVAAISGRGGRTYYADSVKGRFTISRDIAKNTVYLQMNSLKPEDTAVYYCAKVSKYGAYDYWGQGTQVTVSS,high polyreactivity
9,HVQLGESGGGLVQAGGSLRLSCAASGSTFFPYAMGRYRQAPGKEMELVAAISYSGDSTYYADSVKGRFTISRDTAKNTVYLQMNSLKPEDNAVYYCNAVYFRYRYKYWGQGSQVTVSS,high polyreactivity
10,QVQLVESGGGLVQAGGSLRLSCAASGSTRYNAMGWYRQAPGKERELVAAINTSGGSTRYADSVKGRFTISRDNAKNPVYLQMNSLKPEDTAVYYCNAGNSIPGVQKVIVHGLDYWGQGTQVTVSS,high polyreactivity
11,QDQLVESGGGLVQAGGSLRLTSAASGFKFEKNAMGWYRQSPGKERQLVARISRSGGSTYYADSVKGRFTISRDNAKNTVYLQMNSLKPEDTADYYCNCLHRSDSGYYYRYDYWGQGTQVTVSS,high polyreactivity
12,QVQLVESVGGLVQAGGSLRLSCAASGRIFDRYAMGWYRQAPGKERELVAAISSSGGSTYYADSVKGRFTISRDNAKNTVYLQMNSLKPEDTAVYYCAAPRSRSRTSRFDYWGQGTQVTVSS,high polyreactivity
13,QVQLVESGGGIVQAGGSLRLSCAASGIIFGYYAMGWYRQAPGKEREMVAAINQDGSSTYYADSVKGRFTISRDYAKNTVYLQMNSLKPEDTAVFYCNARGVPRQDARMGYWGQGTQVTVSS,low polyreactivity
14,QVQLQESGGGLVQAGGSLRLSCAASGSIFDYVSMGWYRQAPGEERELVVTITLGSNTYYADSVKGRFTISSDIAKNTVYLQMNSLNPVDTAVYYCAASALWGYVYPYWGLGTQVTVSS,high polyreactivity
15,QVQLQESGGGLVQAGGSLGCAASGNISTRSEMGWYRQAPGKDREFVATINSGGITNYADSVNGRFTISRDNAKKTVYLRMNSLKTEDTAVYYRAVFGYLSDPNDYCGQGTQVTVSS,low polyreactivity
16,QVQLVESGGGLVQAGGSLRLSCAASGSIFTSYTMGWYSQAPGKERELVAAIDSGGDSTYYADSVKGRFTISRDNAKNTVYLQMNSLKPEDTAVYYCAAEPQYWWQDYRYNYWGQGTQVTVSS,high polyreactivity
17,QVQLVESGGGLVQAGGSLRLSCAASGRIFTRYAMGSYRQAPGKETEFVAAISGNGGSTYADSVKGRFTISRDNAKNTVYLQMNSLKPEDTAVYYCAAVPYGYGLASDSIFDYWGQGTQVTVSS,high polyreactivity
18,QVQLVESGGGLVQAGGSLRLSGAASGTLYINLMGWYRQATGKERDLVAAISSNGARTYYADSVKGRFTISRDNAKNTVYLQMNSLKPDDTAVYYSNRVASVRARDYDYWGQGTQVTVSS,high polyreactivity
19,QVQLVESGGGLVQAGGSLRLSCAASGINIKYNTMGWYRQAPGKERELVAAISSSGGTKYYADSVKGRFTISRDNAKNTVYLQMNSLKPEDTAVYYCAAGANAQRVPNGDYWGQGTQVTVSS,low polyreactivity
20,QVQLLESGGGLVQSGGSLRLSCAASGRNFTPYAMGWYRQAPGKERELVAAITGSGGITYYADSVKGRFTISRDNAKNTVYFQMNSLKPVDTAVYYCAKDWWQSDSVGDYTHYEYDYWGQGTQVTVSS,low polyreactivity
21,QVQLVESRGGLVQAGGSLRLSCPASGLIYVAYAMGWYRQAPGKERELVAAISRNGGSTYYADSVKGRFTISRDNAKNTVYLQMNSLKPEDTAVYYCAARYAYYTARYTQVKGLDYWGQGTQVTVSS,high polyreactivity
